Reference: patent US20190307836A1 (Bicycle, published 2019)
Starred links: 1 amine or outer side, 2 acyl side, 3 side chain; linkers in the order of their positions; H or OH if unused. Positions of bridges follow the written chain, without caps; N, C: chain ends. Non-standard residues stand in square brackets, D forms with d. Chains are numbered I, II in the order given. No end group written: not given here. *: point of attachment. TATA = O=C(CC[*:1])N1CN(C(=O)CC[*:2])CN(C(=O)CC[*:3])C1; Dap(PYA) = diaminopropionic acid bearing 4-pentynoyl; 1Nal = N[C@@H](Cc1cccc2ccccc12)C(=O)O; Hyp = O=C(O)[C@@H]1C[C@@H](O)CN1; hArg = N=C(N)NCCCC[C@H](N)C(=O)O; tBuAla = CC(C)(C)C[C@H](N)C(=O)O; Nle = CCCC[C@H](N)C(=O)O; Pent4ynoyl = C#CCCC(=O)*; Dap = NC[C@H](N)C(=O)O; βAla = NCCC(=O)O; Sar = CNCC(=O)O

B1: heterotandem bicyclic peptide complex BCY11018 (peptide)
peptide 1: SDKCSAGWLTMCQXLHLCPSH
peptide 2: CXPEKPYCFADPYXCA
modifications: not fully specified; BCY8920: N-terminal acetyl; tBuAla1, D-Lys4 bearing the linker, Nle12; Ci, Cii, Ciii on TATA scaffold; BCY10861: N-terminal acetyl; K(PYA)9 bearing the linker; Ci, Cii, Ciii on TATA scaffold
B2: heterotandem bicyclic peptide complex BCY10578 (peptide)
peptide 1: {Pent4ynoyl-βAla}-[Sar][Sar][Sar][Sar][Sar][Sar][Sar][Sar][Sar][Sar]CP[1Nal][dD]CM[hArg]DWSTP[Hyp]WC
peptide 2: Ac-C[tBuAla]PE[dA]PYCFADPY[Nle]C[Dap]
modifications: linker I:11-I:15-I:25, II:1-II:8-II:15 via TATA; not fully specified (C-terminus); numbers in words are those of the source; also: linker to a chain's N/C-terminus via CH2
B3: heterotandem bicyclic peptide complex BCY10582 (peptide)
peptide 1: SDKCSAGWLTMCQXLHLC
peptide 2: CXPEAPYCFADPYXC
modifications: not fully specified; BCY9172: N-terminal acetyl; tBuAla1, D-Ala4, Nle12; C-terminal Dap (diaminopropionic acid) bearing the linker; Ci, Cii, Ciii on TATA scaffold; BCY10045: free N-terminus (NH2-); K(PYA)9 bearing the linker; Ci, Cii, Ciii on TATA scaffold
B4: heterotandem bicyclic peptide complex BCY11376 (peptide)
peptide 1: SDKCSAGWLTMCQXLHLCPSH
peptide 2: CXPKAPYCFADPYXCA
modifications: not fully specified; BCY8919: N-terminal acetyl; tBuAla1, Lys3 bearing the linker, D-Ala4, Nle12; Ci, Cii, Ciii on TATA scaffold; BCY10861: N-terminal acetyl; K(PYA)9 bearing the linker; Ci, Cii, Ciii on TATA scaffold
B5: heterotandem bicyclic peptide complex BCY10569 (peptide)
peptide 1: {Pent4ynoyl-βAla}-[Sar][Sar][Sar][Sar][Sar][Sar][Sar][Sar][Sar][Sar]CP[1Nal][dD]CM[hArg]DWSTP[Hyp]WC
peptide 2: Ac-C[tBuAla]PE[dK]PYCFADPY[Nle]CA
modifications: linker I:11-I:15-I:25, II:1-II:8-II:15 via TATA; not fully specified (C-terminus, bridges); numbers in words are those of the source; also: chains joined by PEG12 linker, triazole from PYA, linker on chain 2 D-Lys side chain
B6: heterotandem bicyclic peptide complex BCY10580 (peptide)
peptide 1: {Pent4ynoyl-βAla}-[Sar][Sar][Sar][Sar][Sar][Sar][Sar][Sar][Sar][Sar]SDKCSAGWLTMCQKLHLC
peptide 2: Ac-C[tBuAla]PE[dA]PYCFADPY[Nle]C[Dap]
modifications: linker I:14-I:22-I:28, II:1-II:8-II:15 via TATA; not fully specified (C-terminus); numbers in words are those of the source; also: linker to a chain's N/C-terminus via PEG12
B7: heterotandem bicyclic peptide complex BCY8939 (peptide)
peptide 1: CXDWCHWTFSHGHPC
peptide 2: ACIEEGQYCFADPYXC
modifications: BCY7732: N-terminal acetyl; Nle12; C-terminal Dap (diaminopropionic acid) bearing the linker; Ci, Cii, Ciii on TATA scaffold; BCY8938: N-terminal [PYA]-[B-Ala]-[Sar10]- (linker on PYA); HArg1; Ci, Cii, Ciii on TATA scaffold
B8: heterotandem bicyclic peptide complex BCY11017 (peptide)
peptide 1: SDKCSAGWLTMCQXLHLCPSH
peptide 2: CXPKAPYCFADPYXCA
modifications: not fully specified; BCY8919: N-terminal acetyl; tBuAla1, Lys3 bearing the linker, D-Ala4, Nle12; Ci, Cii, Ciii on TATA scaffold; BCY10861: N-terminal acetyl; K(PYA)9 bearing the linker; Ci, Cii, Ciii on TATA scaffold
B9: heterotandem bicyclic peptide complex BCY11379 (peptide)
peptide 1: SDKCSAGWLTMCQXLHLCPSH
peptide 2: CXPKAPYCFADPYXCA
modifications: not fully specified; BCY8919: N-terminal acetyl; tBuAla1, Lys3 bearing the linker, D-Ala4, Nle12; Ci, Cii, Ciii on TATA scaffold; BCY10861: N-terminal acetyl; K(PYA)9 bearing the linker; Ci, Cii, Ciii on TATA scaffold
B10: heterotandem bicyclic peptide complex BCY11377 (peptide)
peptide 1: SDKCSAGWLTMCQXLHLCPSH
peptide 2: CXPEKPYCFADPYXCA
modifications: not fully specified; BCY8920: N-terminal acetyl; tBuAla1, D-Lys4 bearing the linker, Nle12; Ci, Cii, Ciii on TATA scaffold; BCY10861: N-terminal acetyl; K(PYA)9 bearing the linker; Ci, Cii, Ciii on TATA scaffold
B11: heterotandem bicyclic peptide complex BCY11380 (peptide)
peptide 1: SDKCSAGWLTMCQXLHLCPSH
peptide 2: CXPEKPYCFADPYXCA
modifications: not fully specified; BCY8920: N-terminal acetyl; tBuAla1, D-Lys4 bearing the linker, Nle12; Ci, Cii, Ciii on TATA scaffold; BCY10861: N-terminal acetyl; K(PYA)9 bearing the linker; Ci, Cii, Ciii on TATA scaffold
B12: heterotandem bicyclic peptide complex BCY10567 (peptide)
peptide 1: {Pent4ynoyl-βAla}-[Sar][Sar][Sar][Sar][Sar][Sar][Sar][Sar][Sar][Sar]CP[1Nal][dD]CM[hArg]DWSTP[Hyp]WC
peptide 2: Ac-C[tBuAla]PK[dA]PYCFADPY[Nle]CA
modifications: linker I:11-I:15-I:25, II:1-II:8-II:15 via TATA; not fully specified (C-terminus, bridges); numbers in words are those of the source; also: chains joined by PEG12 linker, triazole from PYA, linker on chain 2 Lys4 side chain
B13: heterotandem bicyclic peptide complex BCY10570 (peptide)
peptide 1: {Pent4ynoyl-βAla}-[Sar][Sar][Sar][Sar][Sar][Sar][Sar][Sar][Sar][Sar]A[hArg]DC[Hyp]LVNPLCLHP[dD]W[hArg]C
peptide 2: Ac-C[tBuAla]PE[dK]PYCFADPY[Nle]CA
modifications: linker I:14-I:21-I:28, II:1-II:8-II:15 via TATA; not fully specified (C-terminus); numbers in words are those of the source; also: chains joined by PEG12 linker, triazole from PYA, linker on chain 2 D-Lys side chain
B14: heterotandem bicyclic peptide complex BCY10575 (peptide)
peptide 1: A[hArg]DC[Hyp]LVNPLCLHP[dD]W[hArg]C
peptide 2: Ac-C[tBuAla]PE[dK](Pent4ynoyl)PYCFADPY[Nle]CA
modifications: linker I:4-I:11-I:18, II:1-II:8-II:15 via TATA; not fully specified (C-terminus); also: chains joined by PEG5 linker on chain 1 N-terminus, triazole to D-Lys(PYA)
B15: heterotandem bicyclic peptide complex BCY10568 (peptide)
peptide 1: {Pent4ynoyl-βAla}-[Sar][Sar][Sar][Sar][Sar][Sar][Sar][Sar][Sar][Sar]A[hArg]DC[Hyp]LVNPLCLHP[dD]W[hArg]C
peptide 2: Ac-C[tBuAla]PK[dA]PYCFADPY[Nle]CA
modifications: linker I:14-I:21-I:28, II:1-II:8-II:15 via TATA; not fully specified (C-terminus); numbers in words are those of the source; also: chains joined by PEG12 linker, triazole from PYA, linker on chain 2 Lys4 side chain
B16: heterotandem bicyclic peptide complex BCY10576 (peptide)
peptide 1: A[hArg]DC[Hyp]LVNPLCLHP[dD]W[hArg]C
peptide 2: Ac-C[tBuAla]PE[dA]PYCFADPY[Nle]C-{Dap(PYA)}
modifications: linker I:4-I:11-I:18, II:1-II:8-II:15 via TATA; not fully specified (C-terminus); also: chains joined by PEG5 linker on chain 1 N-terminus, triazole to Dap(PYA)
B17: heterotandem bicyclic peptide complex BCY10574 (peptide)
peptide 1: A[hArg]DC[Hyp]LVNPLCLHP[dD]W[hArg]C
peptide 2: Ac-C[tBuAla]PK(Pent4ynoyl)[dA]PYCFADPY[Nle]CA
modifications: linker I:4-I:11-I:18, II:1-II:8-II:15 via TATA; not fully specified (C-terminus); also: chains joined by PEG5 linker on chain 1 N-terminus, triazole to K(PYA)

The binders below were run against CD137 expressed on cells (CHO cells expressing CD137); Jurkat cells of the Promega CD137 luciferase reporter … (UniProt Q07011 24-255, limits assumed) (assay: cell-based or functional assay).
CD137 expressed on cells (CHO cells expressing CD137); Jurkat cells of the Promega CD137 luciferase reporter …, sequence (Q07011 24-255 limits assumed): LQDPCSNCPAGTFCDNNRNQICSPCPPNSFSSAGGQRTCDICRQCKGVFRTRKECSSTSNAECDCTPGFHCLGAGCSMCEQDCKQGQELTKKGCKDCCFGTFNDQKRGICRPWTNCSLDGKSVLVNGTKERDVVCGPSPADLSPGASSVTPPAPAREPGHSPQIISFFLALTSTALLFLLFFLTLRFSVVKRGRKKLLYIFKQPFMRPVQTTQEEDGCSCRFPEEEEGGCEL

Row | Binder | EC50 (nM), CD137 reporter assay, co-culture with RKO (PD-L1) | EC50 (nM), CD137 reporter assay, co-culture with H1376 (Nectin4) | Fold Induction over Background, CD137 reporter assay, co-culture with RKO (PD-L1) | Fold Induction over Background, CD137 reporter assay, co-culture with H1376 (Nectin4) | Fold Induction over Background, CD137 reporter assay, co-culture with MC38 (mouse PD-L1)
1 | B1 | 27 nM |  |  |  | 
2 | B2 |  | 0.42 nM |  |  | 
3 | B3 | 28 nM |  | 4 fold |  | 
4 | B4 | 127 nM |  |  |  | 
5 | B5 |  | 1.2 nM |  | 52 fold | 
6 | B6 | 28 nM |  | 3 fold |  | 
7 | B7 |  |  |  |  | < 2 fold
8 | B8 | 66 nM |  |  |  | 
9 | B9 | 68 nM |  |  |  | 
10 | B10 | 40 nM |  |  |  | 
11 | B11 | 34 nM |  |  |  | 
12 | B12 |  | 1.7 nM |  | 45 fold | 

What follows are binders tested against CD137 expressed on cells (CHO cells expressing CD137; Jurkat cells of the Promega CD137 luciferase reporter assay) (UniProt Q07011) (assay: cell-based or functional assay).
CD137 expressed on cells (CHO cells expressing CD137; Jurkat cells of the Promega CD137 luciferase reporter assay), sequence (Q07011 24-255 limits assumed): as above

Row | Binder | EC50 (nM), CD137 reporter assay, co-culture with PC3 (EphA2) | Fold Induction over Background, CD137 reporter assay, co-culture with PC3 (EphA2)
13 | B13 | 0.41 nM | 38 fold
14 | B14 | 0.62 nM | 38 fold
15 | B15 | 0.25 nM | 32 fold
16 | B16 | 0.51 nM | 38 fold
17 | B17 | 1 nM | 32 fold
